In PMC12065894:

Experiments:
[1] = biological target: dasTMPRSS2 (active TMPRSS2 ectodomain with DDDDK zymogen activation motif) (human) (UniProt O15393)
[2] = biological target: dasTMPRSS11D (active, autocleaved TMPRSS11D with DDDDK zymogen activation motif) (human) (UniProt O60235)
[3] = biological target: dasTMPRSS2 (active TMPRSS2 ectodomain with DDDDK zymogen activation motif) (human) (UniProt O15393); remark: listed apart in the source

Sequence of dasTMPRSS11D (active, autocleaved TMPRSS11D with DDDDK zymogen activation motif) (human) (O60235 other isoform, or with tags, fused parts or gaps L182D | S183D | E184D | Q185D | R186K, chain 1 of 2): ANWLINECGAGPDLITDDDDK
Sequence of dasTMPRSS11D (active, autocleaved TMPRSS11D with DDDDK zymogen activation motif) (human) (O60235 187-418, chain 2 of 2): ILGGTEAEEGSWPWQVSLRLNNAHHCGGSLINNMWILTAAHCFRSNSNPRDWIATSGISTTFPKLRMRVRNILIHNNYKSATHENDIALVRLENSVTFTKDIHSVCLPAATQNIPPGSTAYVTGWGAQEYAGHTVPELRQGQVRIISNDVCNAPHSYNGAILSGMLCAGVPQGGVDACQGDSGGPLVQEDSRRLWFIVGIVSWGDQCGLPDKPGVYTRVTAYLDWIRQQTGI
Sequence of dasTMPRSS2 (active TMPRSS2 ectodomain with DDDDK zymogen activation motif) (human) (O15393 other isoform, or with tags, fused parts or gaps, chain 1 of 2): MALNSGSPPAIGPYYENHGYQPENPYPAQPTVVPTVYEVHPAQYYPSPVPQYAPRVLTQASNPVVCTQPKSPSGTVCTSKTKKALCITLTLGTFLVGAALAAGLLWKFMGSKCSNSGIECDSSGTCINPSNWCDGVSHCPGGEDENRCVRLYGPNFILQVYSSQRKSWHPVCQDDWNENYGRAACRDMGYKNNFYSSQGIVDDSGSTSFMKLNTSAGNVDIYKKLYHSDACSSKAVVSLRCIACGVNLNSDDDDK
Sequence of dasTMPRSS2 (active TMPRSS2 ectodomain with DDDDK zymogen activation motif) (human) (O15393 256-492, chain 2 of 2): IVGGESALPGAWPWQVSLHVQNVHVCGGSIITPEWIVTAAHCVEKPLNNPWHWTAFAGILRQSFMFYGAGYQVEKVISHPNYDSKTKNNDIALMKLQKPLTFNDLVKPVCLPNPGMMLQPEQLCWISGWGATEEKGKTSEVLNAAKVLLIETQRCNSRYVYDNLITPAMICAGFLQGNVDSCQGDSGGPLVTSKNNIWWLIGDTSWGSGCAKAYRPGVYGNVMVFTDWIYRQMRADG

Substance | IC50 of inhibition of dasTMPRSS2 (1.5 nM) peptidase activity on Boc-QAR-AMC (100 µM), 10 min pre-incubation [1] [nM] | IC50 of inhibition of dasTMPRSS11D (15 nM) peptidase activity on Boc-QAR-AMC (100 µM) [2] [nM] | IC50 of inhibition of dasTMPRSS2 (1.5 nM) peptidase activity on Boc-QAR-AMC (100 µM) [3] [nM]
Peptidomimetic 1, Ac-Glu-Gln-Arg-kbt (peptide) | 2.2 |  | 
Peptidomimetic 5, Ac-Glu-Orn-Arg-kbt (peptide) |  | 2100 | 6.2
Peptidomimetic 3, Ac-Glu-Glu-Arg-kbt (peptide) |  | 7.1 | 3.2
Peptidomimetic 4, Ac-Glu-D-Glu-Arg-kbt (peptide) |  | 111 | 42
Peptidomimetic 2, Ac-Gln-Ser-Arg-kbt (peptide) | 2.1 |  | 
